± gives the standard deviation of the averaged measurements.
System: ATP
Test: switch fluorescence ratio, 500 uM ATP over buffer (Cy3 cluster intensity, sum of 5 cycles each) (fold (ratio)); higher = stronger signal-on switching upon ATP binding; sequences stand for … in TCGTCGGCAGCGTCAGATGTGTATAAGAGACAGTTTTTTTTTTTTTTTTTTTTTTTTT…TC
Conditions: aptamer strand: ATP DNA aptamer (quencher-CACCTGGGGGAGTATTGCGGAGGAAGG + anchor), 100 nM annealed; ATP concentration: 500 uM
Method in brief: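 Exposure to 500 uM ATP lasted 15 min at 22 °C before imaging, and a selection-buffer image was taken beforehand, for Cy3-labelled switching-strand clusters on a modified Illumina MiSeq flow-cell annealed to 100 nM quencher-labelled ATP aptamer. Five buffer/ATP cycles were run with NaOH stripping and re-annealing between them. The fluorescence ratio per cluster is summed target-cycle over summed buffer-cycle Cy3 intensity, averaged per switch-domain sequence. Clusters outside 100-1000 RFU were excluded.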

CGTTTAGTAG
switch fluorescence ratio: 1.03 ± 0.013

CGTTTATGTG
switch fluorescence ratio: 0.9953 ± 0.0089

CGTTTCGCCC
switch fluorescence ratio: 1.04 ± 0.038

CGTTTCGTGT
switch fluorescence ratio: 0.972 ± 0.066

CGTTTGGAAC
switch fluorescence ratio: 1.01 ± 0.055

CGTTTGGGAG
switch fluorescence ratio: 0.9739 ± 0.0061

CGTTTGGGGT
switch fluorescence ratio: 1.002 ± 0.0071

CGTTTGTTCT
switch fluorescence ratio: 1.03 ± 0.061

CGTTTGTTGC
switch fluorescence ratio: 0.974 ± 0.034

CGTTTGTTGG
switch fluorescence ratio: 0.984 ± 0.028

CGTTTTATAG
switch fluorescence ratio: 0.9973 ± 0.0071

CGTTTTATGC
switch fluorescence ratio: 0.947 ± 0.059

CGTTTTTCTG
switch fluorescence ratio: 0.968 ± 0.013

CTAAAATTAA
switch fluorescence ratio: 1.01 ± 0.031

CTAAACTAGG
switch fluorescence ratio: 1.02 ± 0.013

CTAAAGGAAG
switch fluorescence ratio: 1.01 ± 0.029

CTAAAGGACT
switch fluorescence ratio: 0.9989 ± 0.0015

CTAAATTCGT
switch fluorescence ratio: 0.987 ± 0.08

CTAACATCCG
switch fluorescence ratio: 1.06 ± 0.025

CTAACGCCTG
switch fluorescence ratio: 1.03 ± 0.07

CTAACGGAAT
switch fluorescence ratio: 1.7 ± 0.34

CTAACGGGTA
switch fluorescence ratio: 1 ± 0.018

CTAAGATCGG
switch fluorescence ratio: 1 ± 0.02

CTAAGCTTTG
switch fluorescence ratio: 1 ± 0.035

CTAAGGCCTG
switch fluorescence ratio: 0.97 ± 0.072

CTAAGGCGAT
switch fluorescence ratio: 1.06 ± 0.12

CTAAGGGGCA
switch fluorescence ratio: 1 ± 0.019

CTAAGGGGTG
switch fluorescence ratio: 1.022 ± 0.0057

CTAAGGGTTC
switch fluorescence ratio: 0.999 ± 0.015

CTAAGGTGTT
switch fluorescence ratio: 1.325 ± 0.011

CTAAGTAGAT
switch fluorescence ratio: 1.02 ± 0.028

CTAAGTTTGA
switch fluorescence ratio: 1.03 ± 0.037

CTAATCAGCT
switch fluorescence ratio: 0.977 ± 0.019

CTAATGACGT
switch fluorescence ratio: 1.01 ± 0.015

CTAATGGAGC
switch fluorescence ratio: 0.98 ± 0.017

CTAATTTGCC
switch fluorescence ratio: 1.02 ± 0.084

CTAATTTTTG
switch fluorescence ratio: 1 ± 0.024

CTACAAGTTA
switch fluorescence ratio: 1.048 ± 0.0027

CTACACGAGA
switch fluorescence ratio: 1.09 ± 0.019

CTACATGCCC
switch fluorescence ratio: 1.15 ± 0.18

CTACCGGATT
switch fluorescence ratio: 1.07 ± 0.012

CTACGAAGTA
switch fluorescence ratio: 1.01 ± 0.015

CTACTCTCGC
switch fluorescence ratio: 1.15 ± 0.019

CTACTGGGGA
switch fluorescence ratio: 1.05 ± 0.036

CTACTGTGGG
switch fluorescence ratio: 0.9651 ± 0.006

CTACTTAGGG
switch fluorescence ratio: 1.03 ± 0.036

CTACTTGAGT
switch fluorescence ratio: 0.985 ± 0.019

CTAGACCAGG
switch fluorescence ratio: 1.01 ± 0.014

CTAGACGTTT
switch fluorescence ratio: 1.01 ± 0.047

CTAGAGGGGA
switch fluorescence ratio: 1.14 ± 0.2

CTAGCAACGT
switch fluorescence ratio: 1.03 ± 0.067

CTAGGAAGGT
switch fluorescence ratio: 1.01 ± 0.033

CTAGGAGGCG
switch fluorescence ratio: 1.03 ± 0.053

CTAGGATCGG
switch fluorescence ratio: 0.993 ± 0.057

CTAGGATGTA
switch fluorescence ratio: 0.986 ± 0.015

CTAGGCAGGG
switch fluorescence ratio: 1.01 ± 0.005

CTAGGCTCAA
switch fluorescence ratio: 1.004 ± 0.004

CTAGGGCTGA
switch fluorescence ratio: 0.972 ± 0.013

CTAGGGGGAT
switch fluorescence ratio: 0.9962 ± 0.0043

CTAGGGGTTT
switch fluorescence ratio: 1 ± 0.034

CTAGGTGGGG
switch fluorescence ratio: 1.02 ± 0.025

CTAGGTGTGA
switch fluorescence ratio: 1.07 ± 0.017

CTAGGTTTGA
switch fluorescence ratio: 0.987 ± 0.019

CTAGTCGTAC
switch fluorescence ratio: 1.03 ± 0.068

CTAGTCTGAA
switch fluorescence ratio: 0.982 ± 0.031

CTAGTGGTGA
switch fluorescence ratio: 0.972 ± 0.015

CTAGTTAGCT
switch fluorescence ratio: 1.015 ± 0.0097

CTAGTTTTTG
switch fluorescence ratio: 0.997 ± 0.049

CTATAAACGG
switch fluorescence ratio: 1.03 ± 0.054

CTATAACGTT
switch fluorescence ratio: 1.01 ± 0.005

CTATACCGTT
switch fluorescence ratio: 1.003 ± 0.0048

CTATATGGAC
switch fluorescence ratio: 1.05 ± 0.017

CTATCACAGG
switch fluorescence ratio: 2.01 ± 0.08

CTATCAGCTA
switch fluorescence ratio: 1.1 ± 0.03

CTATCCGTGC
switch fluorescence ratio: 1.287 ± 0.0028

CTATCTGCGG
switch fluorescence ratio: 1.04 ± 0.046

CTATGAATGG
switch fluorescence ratio: 0.975 ± 0.057

CTATGAATTA
switch fluorescence ratio: 0.984 ± 0.024

CTATGCAGTG
switch fluorescence ratio: 1.03 ± 0.024

CTATGCGGGA
switch fluorescence ratio: 1.01 ± 0.04

CTATGGGGTT
switch fluorescence ratio: 0.977 ± 0.011

CTATGGGTTT
switch fluorescence ratio: 1.024 ± 0.0032

CTATGTCAAC
switch fluorescence ratio: 1.06 ± 0.023

CTATTAAGTA
switch fluorescence ratio: 0.9802 ± 0.0064

CTATTACGG
switch fluorescence ratio: 1.04 ± 0.075

CTATTATCTG
switch fluorescence ratio: 1.01 ± 0.024

CTATTCTAGG
switch fluorescence ratio: 1.019 ± 0.0083

CTATTCTTGG
switch fluorescence ratio: 0.9524 ± 0.006

CTATTTAGAT
switch fluorescence ratio: 0.984 ± 0.011

CTATTTATCA
switch fluorescence ratio: 1.02 ± 0.053

CTATTTGACT
switch fluorescence ratio: 0.9576 ± 0.0028

CTATTTTACT
switch fluorescence ratio: 0.9873 ± 0.0073

CTATTTTATT
switch fluorescence ratio: 1.01 ± 0.068

CTATTTTGGG
switch fluorescence ratio: 0.993 ± 0.026

CTCAACGTTC
switch fluorescence ratio: 1.088 ± 0.006

CTCAATCTTG
switch fluorescence ratio: 0.971 ± 0.043

CTCACGGGGC
switch fluorescence ratio: 1.16 ± 0.16

CTCAGACGGA
switch fluorescence ratio: 1 ± 0.043

CTCAGCCCGT
switch fluorescence ratio: 1.03 ± 0.095

CTCAGGGGAG
switch fluorescence ratio: 1.03 ± 0.047

CTCAGTATCT
switch fluorescence ratio: 0.972 ± 0.041

CTCAGTTATG
switch fluorescence ratio: 1.0176 ± 0.00079

CTCATAGACA
switch fluorescence ratio: 1.03 ± 0.08

CTCATATTGT
switch fluorescence ratio: 1.006 ± 0.0076

CTCATCGGTT
switch fluorescence ratio: 1.007 ± 0.0011

CTCATTGGCC
switch fluorescence ratio: 0.983 ± 0.0025

CTCCATATTA
switch fluorescence ratio: 1.057 ± 0.0068

CTCCCACACG
switch fluorescence ratio: 2.35 ± 0.36

CTCCCCGGGT
switch fluorescence ratio: 3 ± 1.1

CTCCGATGTG
switch fluorescence ratio: 1.57 ± 0.061

CTCCTCGTCA
switch fluorescence ratio: 1.17 ± 0.036

CTCCTTTATT
switch fluorescence ratio: 1.04 ± 0.037

CTCGCATGCA
switch fluorescence ratio: 1.2 ± 0.035

CTCGCGACGA
switch fluorescence ratio: 1.06 ± 0.019

CTCGCGGCGG
switch fluorescence ratio: 1.03 ± 0.034

CTCGCTCGGT
switch fluorescence ratio: 1.01 ± 0.019

CTCGCTCGTT
switch fluorescence ratio: 1.03 ± 0.018

CTCGGAACCT
switch fluorescence ratio: 1.84 ± 0.22

CTCGGAATGG
switch fluorescence ratio: 1.08 ± 0.043

CTCGGAATTT
switch fluorescence ratio: 1.04 ± 0.037

CTCGGATAGC
switch fluorescence ratio: 1.02 ± 0.045

CTCGGCGCGC
switch fluorescence ratio: 1.024 ± 0.0044

CTCGGCTTGT
switch fluorescence ratio: 1.05 ± 0.044

CTCGGGGGCT
switch fluorescence ratio: 0.98 ± 0.027

CTCGGGTGGG
switch fluorescence ratio: 0.985 ± 0.037

CTCGTATTTA
switch fluorescence ratio: 0.976 ± 0.021

CTCGTCAGGG
switch fluorescence ratio: 0.995 ± 0.029

CTCGTCCGAC
switch fluorescence ratio: 1.53 ± 0.11

CTCGTGGTTT
switch fluorescence ratio: 0.981 ± 0.024

CTCGTTGAAA
switch fluorescence ratio: 0.9779 ± 0.0065

CTCTAAAAAG
switch fluorescence ratio: 1.06 ± 0.05

CTCTAATATC
switch fluorescence ratio: 1.47 ± 0.091

CTCTAATTTT
switch fluorescence ratio: 1.013 ± 0.0052

CTCTAGCCTC
switch fluorescence ratio: 1.176 ± 0.0012

CTCTAGTGGC
switch fluorescence ratio: 1.1 ± 0.074

CTCTCGACAC
switch fluorescence ratio: 1.69 ± 0.078

CTCTGAAGCT
switch fluorescence ratio: 1.06 ± 0.017

CTCTGGACAG
switch fluorescence ratio: 0.9718 ± 0.0089

CTCTGGATTT
switch fluorescence ratio: 0.97272 ± 0.00011

CTCTGGGAGG
switch fluorescence ratio: 0.995 ± 0.021

CTCTGGGGCG
switch fluorescence ratio: 1.01 ± 0.023

CTCTGGGGTA
switch fluorescence ratio: 1.05 ± 0.031

CTCTGGGGTC
switch fluorescence ratio: 1.05 ± 0.048

CTCTGGGTTG
switch fluorescence ratio: 1.07 ± 0.13

CTCTTACTTT
switch fluorescence ratio: 0.9862 ± 0.0084

CTCTTGTTTT
switch fluorescence ratio: 0.988 ± 0.018

CTCTTTACGG
switch fluorescence ratio: 1 ± 0.04

CTCTTTAGCG
switch fluorescence ratio: 1.01 ± 0.025

CTCTTTCGAT
switch fluorescence ratio: 1.03 ± 0.03

CTGAAAGGGC
switch fluorescence ratio: 1.03 ± 0.066

CTGAAGGAGG
switch fluorescence ratio: 0.971 ± 0.037

CTGAAGTTGT
switch fluorescence ratio: 1.01 ± 0.032

CTGAATGGGG
switch fluorescence ratio: 0.971 ± 0.01

CTGACGGCTT
switch fluorescence ratio: 1.056 ± 0.0068

CTGAGAAGAG
switch fluorescence ratio: 0.993 ± 0.041

CTGAGATCAG
switch fluorescence ratio: 1.01 ± 0.026

CTGAGCCGGA
switch fluorescence ratio: 1.08 ± 0.16

Reference: the supplement of paper PMC10126150
